Non-standard residues stand in square brackets, D forms with d. No end group written: not given here. Abu = CC[C@H](N)C(=O)O A value given as a limit tells only on which side of the number the result lay.

Data on 46 molecules can be found in US20040048790A1.

Holding throughout (conditions): remark: other sources report otherwise
The target in assay [1] is HLA-A*1101 (human). The assay is described as follows: 125I-probe peptide inhibition, purified HLA.
Assay [2] addresses HLA-A*0201 (human). The assay is described as follows: 125I-probe peptide inhibition, purified HLA.
In assay [3] the target is HLA-A*0202 (human). The assay is described as follows: 125I-probe peptide inhibition, purified HLA.
Assay [4] concerns the target HLA-A*0203 (human). The assay is described as follows: 125I-probe peptide inhibition, purified HLA.
Assay [5] has as its target HLA-A*0301 (human). The assay is described as follows: 125I-probe peptide inhibition, purified HLA.
For assay [6], the target named is HLA-A*1101 (human). The assay is described as follows: inhibition of 125I probe peptide binding to purified HLA.
For assay [7], the target named is HLA-A*0201 (human). The assay can be described thus: binding to purified HLA-A*0201 in vitro.
In assay [8] the target is HLA-A*0206 (human). The assay can be described thus: 125I-probe peptide inhibition, purified HLA.
In assay [9] the target is HLA-A*6801 (human). The assay can be described thus: 125I-probe peptide inhibition, purified HLA.
In assay [10] the target is HLA-A*0206 (human). The assay can be described thus: competition vs 125I probe peptide, purified HLA.

For SSCMGGMNR [p53.240 (9-mer …)], the IC50 – broadly, the point on the concentration scale where inhibition reaches its midpoint – in assay [1] amounted to 4.3 nM.

On to KLYQGSYGFRV [p53.101L2V11], for which the concentration for half-maximal inhibition (IC50) was 81 nM in assay [2], 48 nM in [3] and 24 nM in assay [4].

With RMPEAAPPVA [p53.65 (10-mer)], the IC50 is 78 nM in assay [2] and 13 nM in [4].

For the molecule GVRVRAMAIYK [p53.154.V2], in assay [5], the IC50 stood at 58 nM. For SSCMGGMNRR [p53 position 240, 10 amino acids], the relative binding ratio (ratio to standard peptide) in assay [6] amounted to 0.086. The molecule NLLGRNSFEV [p53 peptide, position 263, 10 amino acids] gave a concentration for half-maximal inhibition (IC50) in assay [7] below 500 nM. On to SVSRHKKLMFK [p53.376.V2], for which, in assay [5], the IC50 turned out to be 33 nM. In assay [1], SSCMGGMNRR [p53.240 (10-mer …)] gave an IC50 of 70 nM. Consider SSCMGGMNR [p53 position 240, 9 amino acids], for which, in assay [6], the relative binding ratio (ratio to standard peptide) came out at 1.4. ALNKMFCQL [p53.129 (9-mer)]: the IC50 in assay [8] came out at 73 nM. In other words, the double-digit nanomolar range. The molecule GTRVRAMAIYK [p53.154] came in with an IC50 in [5] of 10 nM. Take RTEEENLRK [p53 position 283, 9 amino acids]: the relative binding ratio (ratio to standard peptide) in assay [6] was determined as 0.091. Take VTCTYSPALNK [p53 position 122, 11 amino acids]: the relative binding ratio (ratio to standard peptide) in assay [6] is 0.12.

B1: p53.124.B1V2 (peptide)
peptide: BVYSPALNK
modifications: here or on the partner: B at position 1 = alpha-amino butyric acid (in place of Cys)
Regarding B1, the IC50 in [1] came to 13 nM; in [9], 500 nM.

As to YGFRLGFLH [p53 position 107, 9 amino acids], in assay [6], the relative binding ratio (ratio to standard peptide) turned out to be 0.26. On to RMPEAAPPV [p53.65 (9-mer)], for which the IC50 in assay [3] is 23 nM; in [4], 22 nM; in assay [8], 70 nM.

RMPEAAPPV [p53.65 (9 amino acids)] gave an IC50 in [7] below 500 nM. Molecule KLLPENNVL [p53 peptide, position 24, 9 amino acids] gave an IC50 in [7] below 500 nM. The same measure, in the same setting: with GLAPPQHLIRV [p53 peptide, position 187, 11 amino acids] the figure was below 500 nM. In the case of TCTYSPALNK [p53 position 123, 10 amino acids], in assay [6], the relative binding ratio (ratio to standard peptide) was 0.012.

KQSQHMTEV [p53.164]: the IC50 came to 500 nM in [2] and 170 nM in assay [4].

Turning to FLHSGTAKSV [p53 peptide, position 113, 10 amino acids], in assay [7], the IC50 was below 500 nM.

On to KLSQHMTEV [p53.164L2], for which the IC50 in assay [3] came out at 94 nM; in assay [8], 46 nM. In assay [10], ALNKMFCQL [p53.129] had a half-maximal inhibitory concentration (IC50) of 73 nM.

As to KGQSTSRHK [p53 position 373, 9 amino acids], in assay [6], the relative binding ratio (ratio to standard peptide) amounted to 0.0002. Molecule CQLAKTCPV [p53 peptide, position 135, 9 amino acids] yielded an IC50 in assay [7] below 500 nM. In assay [5], RVCACPGR [p53.273 (8-mer)] gave an IC50 of 31 nM. Take TSRHKKLMFK [p53 position 377, 10 amino acids]: in [6], the relative binding ratio (ratio to standard peptide) was determined as 0.0052.

In turn, QLAKTCPV [p53.136 (8 amino acids)] gave an IC50 in assay [7] below 500 nM. Consider RVRAMAIYK [p53 position 156, 9 amino acids], for which the relative binding ratio (ratio to standard peptide) in assay [6] worked out at 0.73. With CLLAKTCPV [p53.135L2], the IC50 in assay [4] stood at 67 nM; in assay [8], 370 nM.

For NLLGRNSFEV [p53.263], the IC50 in [4] was 2500 nM. Consider SV[Abu]MGGMNRK [p53.240.V2B3K10], for which the IC50 is 75 nM in [1] and 17 nM in assay [9]. In turn, KMFCQLAKT [p53 peptide, position 132, 9 amino acids] registered an IC50 in assay [7] below 500 nM. For the molecule KVYQGSYGFK [p53.101.V2K10], the IC50 came out at 33 nM in assay [5], 9.2 nM in [1] and 38 nM in assay [9]. In turn, ALNKMFCQLA [p53.129 (10-mer)] gave an IC50 in [4] of 71 nM. SVSRHKKLMFR [p53.376.V2R11] showed an IC50 in [9] of 500 nM. In other words, the sub-micromolar range. Turning to KQSQHMTEV [p53 peptide, position 164, 9 amino acids], the IC50 in assay [7] was below 500 nM. Take TSSSPQPK [p53 position 312, 8 amino acids]: the relative binding ratio (ratio to standard peptide) in [6] stood at 0.0019. As to LGFLHSGTAK [p53 position 111, 10 amino acids], the relative binding ratio (ratio to standard peptide) in assay [6] is 0.0002.

In [7], LLPENNVLSPL [p53 peptide, position 25, 11 amino acids] returned an IC50 below 500 nM.

Regarding RMPEAAPPVA [p53.65 (10 amino acids)], the IC50 in assay [7] is below 500 nM. Molecule ALNKMFCQLV [p53.129V10] returned an IC50 in assay [8] of 7400 nM.

With KTYQGSYGFK [p53.101 (10-mer …)], the IC50 in assay [1] worked out at 14 nM. Regarding YMCNSSCMGGM [p53.236], the concentration for half-maximal inhibition (IC50) in [4] was 67 nM; in assay [8] it was 974 nM. On to KMFCQLAK [p53.132 (8-mer)], for which the IC50 in [5] was 29 nM; in assay [1] it was 17 nM.
